From US20160272995A1, “MANIPULATION OF PLASMODESMAL CONNECTIVITY TO IMPROVE PLANT YIELD AND FITNESS” (UNIVERSITY OF DELAWARE, priority 2013, published 2016) come the findings set out here.

One assay relates to PDLP5pro:GUS. Put plainly: Hormone treatment of PDLP5pro:GUS seedlings, GUS staining of roots. In kind it is in vivo, Arabidopsis thaliana. The following applies: 7-day-old seedlings, 9 hours; NAA 100 nM, SA 100 μM, JA 50 μM, ABA 10 μM, 6-BAP 1 μM. The source says:
(A) GUS staining of napthalene acetic acid (NAA)-treated roots. Images are tiled and manually aligned. Scale bars, 50 μm. (B) Model for the possible role of PDLP5 during lateral root (LR) emergence. In the wild type (WT) plant, auxin-triggered PDLP5 limits excess diffusion of auxin through PD. This helps regulate the expression timing of genes encoding LAX3 and CWR enzymes in the cortex that positively influence LR emergence. In the plant having a severe knock-down in PDLP5 (pdlp5-1), auxin can diffuse through PD into cortical (and later, epidermal) cells earlier than it should. En, endodermis; Co, cortex; Ep, epidermis This expedites the expression of emergence-promoting genes, accelerating LR emergence.
Concentrations: salicylic acid (SA), 100 μM; JA, 50 μM; ABA, 10 μM; 6-BAP, 1 μM. n=10 per treatment for each line. Representative images are shown. Scale bar, 100 μm.
(§1) To further test that PDLP5pro responds to auxin, we treated 7-day-old PDLP5pro:GUS seedlings with the auxin analog 1-napthalene acetic acid (NAA). […] However, whereas DR5:GUS staining was intensified at the root meristem, exogenous auxin-induced PDLP5pro:GUS expression was again completely excluded from the root tip (FIG. 24).
GUS solution (100 mM sodium phosphate buffer, pH 7.0, 10 mM EDTA, 0.5 mM each potassium ferrocyanide and potassium ferricyanide, 1.24 mM X-Gluc, and 0.1% Triton X-100) was vacuum-infiltrated into plant tissue for five minutes, then removed from vacuum and incubated in 37° C. for 3 to 12 hrs, followed by a series of ethanol washes. Stained tissues were imaged using Zeiss Axioskop 2 microscope. LRP were quantified by counting both the emerged LR and unemerged LR, as determined by DRS::GUS staining of the primordia, under a dissecting microscope (1.2× magnification). LRP stages were determined by examining ethanol-cleared, GUS-stained tissue using 40× water lens.

In a further assay the test system is PDLP5. The assay is described as follows: RT-PCR of PDLP5 transcript in roots after hormone treatment. In kind it is in vivo, Arabidopsis thaliana. As to conditions: nine-day-old seedlings, 4 hours; 100 μM SA, 5 μM NAA. The protocol: Relative band intensity was quantified with Image-J and standardized against ubiquitin. Concentrations: 100 μM salicylic acid (SA), 5 μM napthalene acetic acid (NAA). Three biological and two technical repeats were performed.
as §1

Assay [1] deals with Nicotiana benthamiana leaves. Put plainly: Transient expression via Agrobacteria-infiltration, extent of viral movement. In kind it is in vivo. As to conditions: transient expression in Nicotiana benthamiana leaves. How it is done:
(a) Schematics of PDLP5-m5, PDLP5-C, and PDLP5-2C mutants as created by overlapping PCR. (b) Transient expression of mutants in Nicotiana benthamiana leaves.
We also created mutants altering just two cysteines (“CC”, residues 288 and 289 of the C-terminal tail region) or a single cysteine (“C”, residue 298 of the C-terminal tail region) residues to A1a. The phenotypes of these partial mutants, as well as the PDLP5-OX, pldp5-1 and PDLP5-m5, were tested in transient expression in Nicotiana benthamiana leaves via Agrobacteria-infiltration, targeting the extent of viral movement for comparison.

Assay [2] deals with Arabidopsis thaliana. The assay is described as follows: Root length and secondary root growth of PDLP5-m5 plants. Format: in vivo. The following applies: compared to wild-type plants. The source says:
The sequence of the PCR product was confirmed followed by transformation of Top10 E. coli competent cells. After sequence confirmation, the PDLP5-m5 sequence was transferred from the entry clone pEN-PDLP5-m5 into a binary vector (pGWB) including the constitutive 35S promoter by a Gateway reaction; more particularly, the sequence was cloned into an expression vector under the control of a constitutive 35S promoter to create a pGWB-35S:PDLP5-m5 clone. Agrobacteria were transformed with the pGWB-35S:PDLP5-m5 clone. More particularly, pGWB was introduced into Agrobacteria strain GV3101, and the transformed Agrobacteria were used to transform 4-week-old Arabidopsis thaliana Col-0 plants using floral dipping to produce transgenic plants expressing PDLP5-m5. Transgenic Arabidopsis plants expressing the PDLP5-m5 mutant (pro35S:PDLP5-m5) were made in Col-0 WT and pldp5-1 (severe knockdown) backgrounds.

In assay [3] the test system is Arabidopsis thaliana. The assay is described as follows: Exposure to cold conditions (chilling). As to conditions: relative to wild type plants and plants overexpressing PDLP5; 7 weeks at 5° C. Format: in vivo. How it is done:
Plants were grown to 2 weeks post germination at 20° C. followed by 7 weeks of culture at 5° C. with 16/8 hours light/darkness.

The test system of assay [4] is Arabidopsis thaliana. Put plainly: Drought test: 2 weeks water withdrawal, then rewatering. In kind it is in vivo. The protocol:
All plant lines were grown for 2 weeks with water prior to the 2 week water withdrawal. (a) Plants having a severe knock down of PDLP5 (pdlp5-1) and PDLP5-m5 plants bolt faster than plants overexpressing PDLP5 (OX) and wild type (WT) plants. (b) Plants overexpressing PDLP5 (OX) revive 3 days post rewatering (DPR). (c) Plants overexpressing PDLP5 (OX) fully recover and 10 days post rewatering (DPR); wild type (WT) plants are dead, and PDLP5-m5 plants continue to survive.
(a) Plants overexpressing PDLP5 (OX), wild type (WT) plants, plants having a severe knock down of PDLP5 (pdlp5-1), and three different PDLP5-m5 plants (T3-4-2, T2-6, and T2-26) which were all grown a different number of days as required to reach same rosette size before water withdrawal. Plants having the same rosette size are referred to as “same day bolting samples.” (b) Same day bolting samples of plants overexpressing PDLP5 (OX), wild type (WT) plants, plants having a severe knock down of PDLP5 (pdlp5-1), and three different PDLP5-m5 plants (T3-4-2, T2-6, and T2-26) at the end of a 2 week water withdrawal. (c) Same day bolting samples of plants overexpressing PDLP5 (OX) and two different PDLP5-m5 plants (T3-4-2 and T2-26) recover fully 3 days post rewatering.
Transgenic T1 plants were selected on basta+plates and homozygous T2 lines were identified by segregation test on T3 plants. For the drought test, homozygous lines were grown in soil for the 2 weeks with watering followed by 2 weeks of water withdrawal. Tolerance to drought stress of the PDLP5-m5 was assessed by the plant growth or death upon resuming watering.
PDLP5-m5 plants were evaluated by exposing them to drought conditions. PDLP-m5 plants were grown under normal conditions with water, water was withdrawn for 2 weeks, and rewatering was commenced. Plants having a severe knock down of PDLP5 (pdlp5-1) and PDLP5-m5 plants bolt faster than plants overexpressing PDLP5 and wild type plants (FIG. 13A). […] The early bolting of the PDLP5-m5 plants appeared to affect plant revival. Therefore, the experiment was repeated using same day bolting samples. Briefly, plants having the same rosette size were used, regardless of the number of days required to achieve that rosette size (FIG. 14A).

For assay [5], the system named is Arabidopsis thaliana. Put plainly: Vegetative growth, flowering and seed yield of plants. Format: in vivo. How it is done:
Wild type (WT) plants, plants overexpressing […]), and plants with a severe knock down of […] used as comparisons. (a) Whole plants at 10, 14, and 18 days post germination (dpg). Plants were grown at 22-20° C. with 50% humidity and with 16/8 hours light/darkness. (b) Leaves at 3 weeks post germination. Plants were grown at 24-22° C. with 70% humidity and with 16/8 hours light/darkness. […] Wild type (WT) plants, plants overexpressing PDLP5 (OX), and plants with a severe knock down of PDLP5 (KO) were used as comparisons. […] Seeds were germinated on plates, were transferred to soil after 1 week, and plants were grown at 22-20° C. with 16/8 hours light/darkness. […] Wild type (WT) plants and plants overexpressing […]) were used as comparisons. Plants were grown at 24-22° C. with 70% humidity and with 16/8 hours light/darkness. […] The sequence of the PCR product was confirmed followed by transformation of Top10 E. coli competent cells. […] Agrobacteria were transformed with the […]5 clone.

Numbering of substitutions follows the chain as printed.

On to `CC/C=C\C[C@H]1C(=O)CC[C@@H]1CC(=O)O` [JA], for which the “PDLP5pro:GUS expression in roots” value in the assay with PDLP5pro:GUS is on record as “did not have any effect”.

As to cytokinin, the “PDLP5pro:GUS expression in roots” value in the assay with PDLP5pro:GUS was “did not have any effect”.

For `O=C(O)c1ccccc1O` [SA, salicylic acid], in the assay with PDLP5pro:GUS, the “PDLP5pro:GUS expression in roots” value was “induces PDLP5pro:GUS expression in roots”. For the same molecule, the “PDLP5 transcript level in the roots (RT-PCR)” value with PDLP5 is listed as “Induction of PDLP5 at the transcript level”.

As to `O=C(O)Cc1cccc2ccccc12` [NAA, 1-napthalene acetic acid], in the assay with PDLP5pro:GUS, the “PDLP5pro:GUS expression in roots” value was “occurred in the cells above the ectopically induced LRP”. Moreover, in the assay with PDLP5, the “PDLP5 transcript level in the roots (RT-PCR)” value is reported as “Induction of PDLP5 at the transcript level”.

Regarding `CC1=CC(=O)CC(C)(C)C1(O)/C=C/C(C)=C\C(=O)O` (centres unmarked) [ABA], in the assay with PDLP5pro:GUS, the “PDLP5pro:GUS expression in roots” value is listed as “did not have any effect”.

B1: PDLP5-CC: PDLP5 mutant altering two cysteines (residues 288 and 289 of the C-terminal tail) to Ala (protein, UniProt Q8GUJ2 26-299, looked up, variant C288A C289A)
Plasmodesmata-located protein …: SPTDNYIYAVCSPAKFSPSSGYETNLNSLLSSFVTSTAQTRYANFTVPTGKPEPTVTVYGIYQCRGDLDPTACSTCVSSAVAQVGALCSNSYSGFLQMENCLIRYDNKSFLGVQDKTLILNKCGQPMEFNDQDALTKASDVIGSLGTGDGSYRTGGNGNVQGVAQCSGDLSTSQCQDCLSDAIGRLKSDCGMAQGGYVYLSKCYARFSVGGSHARQTPGPNFGHEGEKGNKDDNGVGKTLAIIIGIVTLIILLVVFLAFVGKAARKLQDEKWCK
In the case of B1, the “extent of viral movement” value in assay [1] is “did not show PDLP5-m5 effect”.

B2: PDLP5-C: PDLP5 mutant altering a single cysteine (residue 298 of the C-terminal tail) to Ala (protein, UniProt Q8GUJ2 26-299, looked up, variant C298A)
Plasmodesmata-located protein …: B1 Plasmodesmata-located protein … with A263C, A264C, C273A
Take B2: the “extent of viral movement” value in assay [1] is recorded as “did not show PDLP5-m5 effect”.

B3: PDLP5-m5: PDLP5 mutant (SEQ ID NO:6) with three Cysteine→Alanine mutations at 288, 289, 298; expressed in transgenic plants under 35S promoter (protein)
chain: MIKTKTTSLLCFLLTAVILMNPSSSSPTDNYIYAVCSPAKFSPSSGYETNLNSLLSSFVTSTAQTRYANFTVPTGKPEPTVTVYGIYQCRGDLDPTACSTCVSSAVAQVGALCSNSYSGFLQMENCLIRYDNKSFLGVQDKTLILNKCGQPMEFNDQDALTKASDVIGSLGTGDGSYRTGGNGNVQGVAQCSGDLSTSQCQDCLSDAIGRLKSDCGMAQGGYVYLSKCYARFSVGGSHARQTPGPNFGHEGEKGNKDDNGVGKTLAIIIGIVTLIILLVVFLAFVGKAARKLQDEKWAK
modifications: modified PDLP5 protein
notes: expressed in transgenic plants under 35S promoter
As for B3, the “total secondary root growth” value with Arabidopsis thaliana [2] was “increase in total secondary root growth”. Also, the “increase in root length” value in the assay on Arabidopsis thaliana [2] (10 days post germination) is given as 30-40%. The “resistance to cold conditions” value with Arabidopsis thaliana [3] is “improved resistance”. In addition, the outcome upon rewatering in the assay with Arabidopsis thaliana [4] (rewatering after 2 weeks water withdrawal) is “continued to grow upon rewatering”. Besides, the bolting result in the assay with Arabidopsis thaliana [4] (versus plants overexpressing PDLP5 and wild type plants) is listed as “bolt faster”. Moreover, in the assay on Arabidopsis thaliana [4] (water withdrawn for 2 weeks), the “response to water withdrawal” value is “resistant to water withdrawal”. Further, in assay [1], the “extent of viral movement” value is recorded as “more extensive viral movement”. The rosette diameter entry with Arabidopsis thaliana [5] (22-20° C., 16/8 hours light/darkness) was “relative rosette diameter is maintained”. Also, the seed yield result with Arabidopsis thaliana [5] (compared to wild type and pdlp5-1) is on record as “normal to better seed yield”. In addition, in the assay with Arabidopsis thaliana [5] (compared with WT and PDLP5-OX), the flowering result is “early flowering”. Besides, the vegetative growth result in the assay with Arabidopsis thaliana [5] (compared with WT, PDLP5-OX, pdlp5-1) is recorded as “fast vegetative growth”.
